In article PMC4409310, “Substrate Recognition and Modification by the Nosiheptide Resistance Methyltransferase” (PLoS ONE, 2015):

B1: N-terminal hexahistidine tagged nosiheptide resistance methyltransferase (His-NHR) (enzyme, Streptomyces actuosus, UniProt P52391 1-274, looked up)
chain: MTEPAIITNASDPAVQRIIDVTKHSRASIKTTLIEDTEPLMECIRAGVQFIEVYGSSGTPLDPALLDLCRQREIPVRLIDVSIVNQLFKAERKAKVFGIARVPRPARLADIAERGGDVVVLDGVKIVGNIGAIVRTSLALGAAGIVLVDSDLATIADRRLLRASRGYVFSLPVVLADREEAVSFLRDNDIALMVLDTDGDLGVKDLGDRADRMALVFGSEKGGPSGLFQEASAGTVSIPMLSSTESLNVSVSVGIALHERSARNFAVRRAAAQA
notes: nosiheptide resistance methyltransferase (NHR), Streptomyces actuosus; wild type; Homodimer when alone; in the heterodimer with Trx-NHR one chain of each construct; also called NHR(S); short, S; source: over expressed from pET-28a-NHR, purified (Ni-NTA, gel filtration); not shown: His6, N-terminal, kept
B2: HA-His-NHR-R135A (enzyme, Streptomyces actuosus, UniProt P52391 1-274, looked up)
chain: MTEPAIITNASDPAVQRIIDVTKHSRASIKTTLIEDTEPLMECIRAGVQFIEVYGSSGTPLDPALLDLCRQREIPVRLIDVSIVNQLFKAERKAKVFGIARVPRPARLADIAERGGDVVVLDGVKIVGNIGAIVATSLALGAAGIVLVDSDLATIADRRLLRASRGYVFSLPVVLADREEAVSFLRDNDIALMVLDTDGDLGVKDLGDRADRMALVFGSEKGGPSGLFQEASAGTVSIPMLSSTESLNVSVSVGIALHERSARNFAVRRAAAQA
notes: nosiheptide resistance methyltransferase (NHR), Streptomyces actuosus; Homodimer when alone; in the heterodimer with Flag-Trx-His-NHR one chain of each construct; also called HA-NHR-R135A; HA-R135A-NHR; source: site-directed mutagenesis of His-NHR, HA tag added by PCR; purified (Ni-NTA, gel filtration); not shown: His6, N-terminal, kept
B3: thioredoxin tagged nosiheptide resistance methyltransferase (Trx-NHR) (enzyme, Streptomyces actuosus, UniProt P52391 1-274, looked up)
chain: MTEPAIITNASDPAVQRIIDVTKHSRASIKTTLIEDTEPLMECIRAGVQFIEVYGSSGTPLDPALLDLCRQREIPVRLIDVSIVNQLFKAERKAKVFGIARVPRPARLADIAERGGDVVVLDGVKIVGNIGAIVRTSLALGAAGIVLVDSDLATIADRRLLRASRGYVFSLPVVLADREEAVSFLRDNDIALMVLDTDGDLGVKDLGDRADRMALVFGSEKGGPSGLFQEASAGTVSIPMLSSTESLNVSVSVGIALHERSARNFAVRRAAAQA
notes: nosiheptide resistance methyltransferase (NHR), Streptomyces actuosus; wild type; Homodimer when alone; in the heterodimer with His-NHR one chain of each construct; Named Trx-His-NHR in the methods; also called Trx-His-NHR; NHR(L); source: over expressed from pET-32M-NHR, purified (Ni-NTA, gel filtration); not shown: thioredoxin, N-terminal, kept
B4: Flag-Trx-His-NHR (enzyme, Streptomyces actuosus, UniProt P52391 1-274, looked up)
chain: MTEPAIITNASDPAVQRIIDVTKHSRASIKTTLIEDTEPLMECIRAGVQFIEVYGSSGTPLDPALLDLCRQREIPVRLIDVSIVNQLFKAERKAKVFGIARVPRPARLADIAERGGDVVVLDGVKIVGNIGAIVRTSLALGAAGIVLVDSDLATIADRRLLRASRGYVFSLPVVLADREEAVSFLRDNDIALMVLDTDGDLGVKDLGDRADRMALVFGSEKGGPSGLFQEASAGTVSIPMLSSTESLNVSVSVGIALHERSARNFAVRRAAAQA
notes: nosiheptide resistance methyltransferase (NHR), Streptomyces actuosus; wild type; Homodimer when alone; in the heterodimer with HA-His-NHR-R135A one chain of each construct; also called Flag-NHR; Flag-Trx-NHR; source: Flag tag added to Trx-His-NHR by PCR; purified (Ni-NTA, gel filtration); not shown: thioredoxin, N-terminal, kept

Key:
[1] = biological target: the molecule itself; assay: native gel or EMSA; differently tagged (short and long) NHR proteins mixed at 4°C overnight, then incubated with 58 nt or 29 nt RNA (6-10 μM RNA, 2-10 μM protein) for 1 hour at 4°C in 25 mM Hepes-KOH, 25 mM NH4Cl, 5 mM MgCl2, 5 mM DTT, pH 8.0; 6% polyacrylamide native gel, SYBR Gold; dimers seen as RNA-protein complexes
[2] = biological target: B2; assay: as above; conditions: both partners purified

| Binder | stoichiometry N [1] | binding result [2] |
| --- | --- | --- |
| B1 | 2 |  |
| B2 | 2 |  |
| B3 | 2 |  |
| B4 | 2 | binds |
